Ten molecules from patent US20140242080A1 (Hoffmann-La Roche, published 2014) can be followed below.

Assay [1] deals with human MCSP expressed on tumor cells (Colo-38, WM266-4, A375, MV-3, HCT-116) (human, UniProt Q6UVK1 30-2322). Kind of assay: cell-based or functional assay.
Assay [2] deals with T1, hu-MCSP(D3 domain)-avi-his (human, UniProt Q6UVK1 1582-2224).
T1 construct: Recombinant D3 domain with avi and his tags; also called human MCSP(D3 domain)-avi-his; Human MCSP D3
T1 sequence: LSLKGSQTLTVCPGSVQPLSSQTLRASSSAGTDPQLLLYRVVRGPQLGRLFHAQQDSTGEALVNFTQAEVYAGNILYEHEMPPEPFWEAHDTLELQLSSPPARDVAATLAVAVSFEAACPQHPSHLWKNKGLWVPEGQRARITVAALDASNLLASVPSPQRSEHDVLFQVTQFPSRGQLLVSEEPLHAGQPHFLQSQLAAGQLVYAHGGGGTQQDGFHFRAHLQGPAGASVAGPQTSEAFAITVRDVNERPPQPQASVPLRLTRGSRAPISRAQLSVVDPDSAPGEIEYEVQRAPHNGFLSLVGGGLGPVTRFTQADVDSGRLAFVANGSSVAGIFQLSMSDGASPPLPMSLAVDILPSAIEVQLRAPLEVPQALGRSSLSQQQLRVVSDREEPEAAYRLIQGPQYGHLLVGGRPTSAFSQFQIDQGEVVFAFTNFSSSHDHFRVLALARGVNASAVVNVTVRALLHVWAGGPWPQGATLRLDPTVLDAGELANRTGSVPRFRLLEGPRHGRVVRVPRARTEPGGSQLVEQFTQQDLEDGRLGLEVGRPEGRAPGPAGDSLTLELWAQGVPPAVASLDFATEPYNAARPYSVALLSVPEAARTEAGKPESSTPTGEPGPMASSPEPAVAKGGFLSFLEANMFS
Kind of assay: SPR ProteOn XPR36, 25 C; Fab captured via anti-human F(ab')2, MCSP D3 as analyte. As to the method: Briefly, carboxymethylated dextran biosensor chips (CM5, GE Healthcare) were activated with N-ethyl-N′-(3-dimethylaminopropyl)-carbodiimide hydrochloride (EDC) and N-hydroxysuccinimide (NHS) according to the supplier's instructions. Anti-human F(ab′)2 fragment specific capture antibody was diluted with 10 mM sodium acetate, pH 5.0 at 50 μg/ml before injection at a flow rate of 10 μl/minute to achieve approximately up to 10.000 response units (RU) of coupled capture antibody. Following the injection of the capture antibody, 1 M ethanolamine is injected to block unreacted groups. For kinetics measurements, Fabs from bacterial supernatant or purified Fabs were injected at a flow rate of 10 μl/minute for 300 s and a dissociation of 300 s for capture baseline stabilization. […] The surface of the sensorchip was regenerated by injection of glycine pH 1.5 for 30 s at 90 μl/min followed by injection of NaOH for 20 s at the same flow rate. Association rates (kₒₙ) and dissociation rates (koff) were calculated using a simple one-to-one Langmuir binding model (ProteOn XPR36 Evaluation Software or Scrubber software (BioLogic)) by simultaneously fitting the association and dissociation sensorgrams. The equilibrium dissociation constant (KD) was calculated as the ratio koff/kₒₙ.

human MCSP expressed on tumor cells (Colo-38, WM266-4, A375, MV-3, HCT-116), sequence (Q6UVK1 30-2322): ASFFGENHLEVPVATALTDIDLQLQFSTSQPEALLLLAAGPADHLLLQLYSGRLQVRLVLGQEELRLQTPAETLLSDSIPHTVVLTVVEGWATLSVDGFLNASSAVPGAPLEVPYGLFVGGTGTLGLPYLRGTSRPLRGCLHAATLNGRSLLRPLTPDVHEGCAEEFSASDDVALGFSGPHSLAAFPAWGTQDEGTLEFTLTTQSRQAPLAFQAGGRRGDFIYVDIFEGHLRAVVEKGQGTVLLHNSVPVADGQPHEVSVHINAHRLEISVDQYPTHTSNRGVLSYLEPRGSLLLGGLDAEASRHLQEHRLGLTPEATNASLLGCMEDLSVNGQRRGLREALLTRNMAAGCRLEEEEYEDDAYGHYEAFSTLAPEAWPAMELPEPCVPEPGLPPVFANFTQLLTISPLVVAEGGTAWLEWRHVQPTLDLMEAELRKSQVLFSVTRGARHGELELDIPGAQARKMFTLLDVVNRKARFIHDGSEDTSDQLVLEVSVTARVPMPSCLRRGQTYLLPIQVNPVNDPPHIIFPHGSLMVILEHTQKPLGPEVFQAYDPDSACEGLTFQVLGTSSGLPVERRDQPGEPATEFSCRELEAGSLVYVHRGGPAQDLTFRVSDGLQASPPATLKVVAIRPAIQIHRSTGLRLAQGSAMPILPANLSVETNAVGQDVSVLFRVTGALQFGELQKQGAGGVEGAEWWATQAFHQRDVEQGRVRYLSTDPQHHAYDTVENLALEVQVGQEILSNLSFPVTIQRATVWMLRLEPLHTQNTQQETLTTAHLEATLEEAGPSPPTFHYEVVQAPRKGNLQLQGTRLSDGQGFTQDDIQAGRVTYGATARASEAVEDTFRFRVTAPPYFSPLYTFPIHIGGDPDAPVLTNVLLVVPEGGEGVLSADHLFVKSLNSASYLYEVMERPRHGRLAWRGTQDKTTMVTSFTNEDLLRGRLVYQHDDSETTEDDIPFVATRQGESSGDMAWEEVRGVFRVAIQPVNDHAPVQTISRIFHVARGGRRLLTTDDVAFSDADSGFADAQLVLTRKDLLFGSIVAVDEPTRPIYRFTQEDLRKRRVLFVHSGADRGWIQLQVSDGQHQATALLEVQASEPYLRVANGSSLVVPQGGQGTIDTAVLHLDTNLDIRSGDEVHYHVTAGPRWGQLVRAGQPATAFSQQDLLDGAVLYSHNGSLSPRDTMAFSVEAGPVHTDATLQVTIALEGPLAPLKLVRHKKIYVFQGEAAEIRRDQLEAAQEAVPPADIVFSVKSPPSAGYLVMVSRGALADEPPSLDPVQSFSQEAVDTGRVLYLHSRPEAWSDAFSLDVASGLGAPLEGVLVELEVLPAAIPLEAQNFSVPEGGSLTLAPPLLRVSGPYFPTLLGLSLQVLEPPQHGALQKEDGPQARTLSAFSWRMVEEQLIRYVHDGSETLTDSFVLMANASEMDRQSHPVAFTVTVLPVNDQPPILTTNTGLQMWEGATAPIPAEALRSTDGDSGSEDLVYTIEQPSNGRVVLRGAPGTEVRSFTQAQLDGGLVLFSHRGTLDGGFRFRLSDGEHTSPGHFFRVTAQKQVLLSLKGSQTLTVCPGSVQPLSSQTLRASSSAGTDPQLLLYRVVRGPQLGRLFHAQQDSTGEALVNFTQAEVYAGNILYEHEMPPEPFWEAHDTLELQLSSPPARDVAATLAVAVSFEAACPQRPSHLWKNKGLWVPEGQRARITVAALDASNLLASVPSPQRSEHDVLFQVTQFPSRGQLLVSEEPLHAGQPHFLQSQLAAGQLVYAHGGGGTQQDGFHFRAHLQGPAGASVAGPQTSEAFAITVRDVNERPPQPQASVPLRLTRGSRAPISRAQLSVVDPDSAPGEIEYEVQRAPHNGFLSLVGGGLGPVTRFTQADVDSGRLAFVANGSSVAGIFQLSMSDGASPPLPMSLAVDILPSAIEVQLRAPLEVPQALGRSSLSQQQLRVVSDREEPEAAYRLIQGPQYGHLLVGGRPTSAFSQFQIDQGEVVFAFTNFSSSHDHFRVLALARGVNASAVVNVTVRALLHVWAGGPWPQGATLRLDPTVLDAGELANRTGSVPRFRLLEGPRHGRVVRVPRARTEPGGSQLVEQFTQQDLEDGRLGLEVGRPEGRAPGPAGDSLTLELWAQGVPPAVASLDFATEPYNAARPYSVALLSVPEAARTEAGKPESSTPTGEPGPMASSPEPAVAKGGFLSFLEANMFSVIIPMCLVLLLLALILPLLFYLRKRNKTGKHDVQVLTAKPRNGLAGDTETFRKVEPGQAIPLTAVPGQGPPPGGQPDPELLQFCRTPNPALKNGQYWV

B1: 1 + 1 CrossMab; CL/CH1 exchange (LC007/V9) (anti-MCSP/anti-huCD3) (bispecific antibody)
chain 1: DIVLTQSPSSLSASLGDRVTISCSASQGIRNYLNWYQQRPDGTVKLLIYYTSSLHSGVPSRFSGSGSGTDYSLTISNLEPEDIATYYCQQYSKLPWTFGGGTKLEIKRTVAAPSVFIFPPSDEQLKSGTASVVCLLNNFYPREAKVQWKVDNALQSGNSQESVTEQDSKDSTYSLSSTLTLSKADYEKHKVYACEVTHQGLSSPVTKSFNRGEC
chain 2: EVQLQESGPGLVKPSQSLSLTCSVTGYSITSGYYWNWIRQFPGNKLEWMGYITYDGSNNYNPSLKNRISITRDTSKNQFFLKLNSVTTEDTATYYCADFDYWGQGTTLTVSSASTKGPSVFPLAPSSKSTSGGTAALGCLVKDYFPEPVTVSWNSGALTSGVHTFPAVLQSSGLYSLSSVVTVPSSSLGTQTYICNVNHKPSNTKVDKKVEPKSCDKTHTCPPCPAPEAAGGPSVFLFPPKPKDTLMISRTPEVTCVVVDVSHEDPEVKFNWYVDGVEVHNAKTKPREEQYNSTYRVVSVLTVLHQDWLNGKEYKCKVSNKALGAPIEKTISKAKGQPREPQVCTLPPSRDELTKNQVSLSCAVKGFYPSDIAVEWESNGQPENNYKTTPPVLDSDGSFFLVSKLTVDKSRWQQGNVFSCSVMHEALHNHYTQKSLSLSPGK
chain 3: DIQMTQSPSSLSASVGDRVTITCRASQDIRNYLNWYQQKPGKAPKLLIYYTSRLESGVPSRFSGSGSGTDYTLTISSLQPEDFATYYCQQGNTLPWTFGQGTKVEIKSSASTKGPSVFPLAPSSKSTSGGTAALGCLVKDYFPEPVTVSWNSGALTSGVHTFPAVLQSSGLYSLSSVVTVPSSSLGTQTYICNVNHKPSNTKVDKKVEPKSC
chain 4: not shown
In the case of B1, in assay [1], the “EC50 of T cell-mediated killing (LDH release), MV-3 cells, human PBMCs E:T 10:1, 21 h” value stood at 88.4 pM and the “EC50 of T cell-mediated killing (LDH release), WM266-4 cells, human PBMCs E:T 10:1, 21 h” value was determined as 53.9 pM.

B2: 2 + 1 IgG Crossfab; CL/CH1 exchange (M4-3 ML2/V9) (anti-MCSP/anti-huCD3) (bispecific antibody)
chain 1: DIQMTQSPSSLSASVGDRVTITCRASQDIRNYLNWYQQKPGKAPKLLIYYTSRLESGVPSRFSGSGSGTDYTLTISSLQPEDFATYYCQQGNTLPWTFGQGTKVEIKSSASTKGPSVFPLAPSSKSTSGGTAALGCLVKDYFPEPVTVSWNSGALTSGVHTFPAVLQSSGLYSLSSVVTVPSSSLGTQTYICNVNHKPSNTKVDKKVEPKSC
chain 2: not shown
chain 3: QVQLQESGPGLVKPSQTLSLTCTVSGGSITSGYYWNWIRQHPGKGLEWIGYITYDGSNNYNPSLKSRVTISRDTSKNQFSLKLSSVTAADTAVYYCADFDYWGQGTLVTVSSASTKGPSVFPLAPSSKSTSGGTAALGCLVKDYFPEPVTVSWNSGALTSGVHTFPAVLQSSGLYSLSSVVTVPSSSLGTQTYICNVNHKPSNTKVDKKVEPKSCDKTHTCPPCPAPEAAGGPSVFLFPPKPKDTLMISRTPEVTCVVVDVSHEDPEVKFNWYVDGVEVHNAKTKPREEQYNSTYRVVSVLTVLHQDWLNGKEYKCKVSNKALGAPIEKTISKAKGQPREPQVCTLPPSRDELTKNQVSLSCAVKGFYPSDIAVEWESNGQPENNYKTTPPVLDSDGSFFLVSKLTVDKSRWQQGNVFSCSVMHEALHNHYTQKSLSLSPGK
chain 4: not shown
Consider B2, for which, in assay [1], the “EC50 of T cell-mediated killing (LDH release), MV-3 cells, human PBMCs E:T 10:1, 27 h” value is around 11.7 pM and the “EC50 of T cell-mediated killing (LDH release), WM266-4 cells, human PBMCs E:T 10:1, 26 h” value is 12.9 pM.

B3: Parental M4-3/ML2 Fab (Fab, V domains shown)
VH: QVQLQESGPGLVKPSQTLSLTCTVSGGSITSGYYWNWIRQHPGKGLEWIGYITYDGSNNYNPSLKSRVTISRDTSKNQFSLKLSSVTAADTAVYYCADFDYWGQGTLVTVSS
VL: DIQMTQSPSSLSASVGDRVTITCRASQGIRNYLNWYQQKPGKAPKLLIYYTSSLHSGVPSRFSGSGSGTDFTLTISSLQPEDFATYYCQQYSKLPWTFGQGTKVEIK
notes: Soluble Fab with Flag tag, bacterial supernatant or purified; also called non-matured parental clone
With B3, the dissociation constant (Kd) in assay [2] came out at 5000 pM.

B4: M4-3(C1)/ML2 Fab (Fab, V domains shown)
VH: QVQLQESGPGLVKPSQTLSLTCTVSGGSITSGYYWNWIRQHPGKGLEWIGYITFDGSNNYNPSLKSRVTISRDTSKNQFSLKLSSVTAADTAVYYCADFDYWGQGTLVTVSS
VL: DIQMTQSPSSLSASVGDRVTITCRASQGIRNYLNWYQQKPGKAPKLLIYYTSSLHSGVPSRFSGSGSGTDFTLTISSLQPEDFATYYCQQYSKLPWTFGQGTKVEIK
notes: Soluble Fab with Flag tag
In turn, B4 displayed a Kd in assay [2] of 600 pM.

B5: M4-3(B8)/ML2 Fab (Fab, V domains shown)
VH: QVQLQESGPGLVKPSQTLSLTCTVSGGSITSGYYWNWIRQHPGKGLEWIGYITFDGRNNYNPSLKSRVTISRDTSKNQFSLKLSSVTAADTAVYYCADFDYWGQGTLVTVSS
VL: DIQMTQSPSSLSASVGDRVTITCRASQGIRNYLNWYQQKPGKAPKLLIYYTSSLHSGVPSRFSGSGSGTDFTLTISSLQPEDFATYYCQQYSKLPWTFGQGTKVEIK
notes: Soluble Fab with Flag tag
As for B5, in assay [2], the Kd stood at 300 pM.

B6: M4-3(D6)/ML2 Fab (Fab, V domains shown)
VH: QVQLQESGPGLVKPSQTLSLTCTVSGGSITSGYYWNWIRQHPGKGLEWIGYITFDGKNNYNPSLKSRVTISRDTSKNQFSLKLSSVTAADTAVYYCADFDYWGQGTLVTVSS
VL: DIQMTQSPSSLSASVGDRVTITCRASQGIRNYLNWYQQKPGKAPKLLIYYTSSLHSGVPSRFSGSGSGTDFTLTISSLQPEDFATYYCQQYSKLPWTFGQGTKVEIK
notes: Soluble Fab with Flag tag
Take B6: the Kd in assay [2] is 2000 pM.

B7: M4-3/ML2(C5) Fab (Fab, V domains shown)
VH: QVQLQESGPGLVKPSQTLSLTCTVSGGSITSGYYWNWIRQHPGKGLEWIGYITYDGSNNYNPSLKSRVTISRDTSKNQFSLKLSSVTAADTAVYYCADFDYWGQGTLVTVSS
VL: DIQMTQSPSSLSASVGDRVTITCRASRGIREYLNWYQQKPGKAPKLLIYYTGSLHSGVPSRFSGSGSGTDFTLTISSLQPEDFATYYCQQYSELPWTFGQGTKVEIK
notes: Soluble Fab with Flag tag
B7 yielded a Kd in assay [2] of 700 pM.

B8: M4-3(A7)/ML2 Fab (Fab, V domains shown)
VH: QVQLQESGPGLVKPSQTLSLTCTVSGGSITDGYYWNWIRQHPGKGLEWIGYITFDGRNNYNPSLKSRVTISRDTSKNQFSLKLSSVTAADTAVYYCADFDYWGQGTLVTVSS
VL: DIQMTQSPSSLSASVGDRVTITCRASQGIRNYLNWYQQKPGKAPKLLIYYTSSLHSGVPSRFSGSGSGTDFTLTISSLQPEDFATYYCQQYSKLPWTFGQGTKVEIK
notes: Soluble Fab with Flag tag
The molecule B8 yielded a Kd in assay [2] of 20 pM.

B9: M4-3/ML2(E10) Fab (Fab, V domains shown)
VH: QVQLQESGPGLVKPSQTLSLTCTVSGGSITSGYYWNWIRQHPGKGLEWIGYITYDGSNNYNPSLKSRVTISRDTSKNQFSLKLSSVTAADTAVYYCADFDYWGQGTLVTVSS
VL: DIQMTQSPSSLSASVGDRVTITCRASYGIRGYLNWYQQKPGKAPKLLIYYTSSLHSGVPSRFSGSGSGTDFTLTISSLQPEDFATYHCQQYSKLPWTFGQGTKVEIK
notes: Soluble Fab with Flag tag
In turn, B9 yielded a Kd in assay [2] of 700 pM.

B10: 2 + 1 IgG Crossfab; VL/VH exchange (M4-3 ML2/V9) (anti-MCSP/anti-huCD3) (bispecific antibody)
chain 1: EVQLVESGGGLVQPGGSLRLSCAASGYSFTGYTMNWVRQAPGKGLEWVALINPYKGVSTYNQKFKDRFTISVDKSKNTAYLQMNSLRAEDTAVYYCARSGYYGDSDWYFDVWGQGTLVTVSSASVAAPSVFIFPPSDEQLKSGTASVVCLLNNFYPREAKVQWKVDNALQSGNSQESVTEQDSKDSTYSLSSTLTLSKADYEKHKVYACEVTHQGLSSPVTKSFNRGEC
chain 2: not shown
chain 3: not shown
chain 4: QVQLQESGPGLVKPSQTLSLTCTVSGGSITSGYYWNWIRQHPGKGLEWIGYITYDGSNNYNPSLKSRVTISRDTSKNQFSLKLSSVTAADTAVYYCADFDYWGQGTLVTVSSASTKGPSVFPLAPSSKSTSGGTAALGCLVKDYFPEPVTVSWNSGALTSGVHTFPAVLQSSGLYSLSSVVTVPSSSLGTQTYICNVNHKPSNTKVDKKVEPKSCDKTHTCPPCPAPEAAGGPSVFLFPPKPKDTLMISRTPEVTCVVVDVSHEDPEVKFNWYVDGVEVHNAKTKPREEQYNSTYRVVSVLTVLHQDWLNGKEYKCKVSNKALGAPIEKTISKAKGQPREPQVCTLPPSRDELTKNQVSLSCAVKGFYPSDIAVEWESNGQPENNYKTTPPVLDSDGSFFLVSKLTVDKSRWQQGNVFSCSVMHEALHNHYTQKSLSLSPGK
Turning to B10, in assay [1], the “EC50 of T cell-mediated killing (LDH release), MV-3 cells, human PBMCs E:T 10:1, 27 h” value is around 82.2 pM and the “EC50 of T cell-mediated killing (LDH release), WM266-4 cells, human PBMCs E:T 10:1, 26 h” value turned out to be 16.8 pM.

For orientation: Kd means the concentration at which binding is half-saturated. A low value points to a tighter complex.
